IntAct's records for PubMed 35512704

B1: Mothers against decapentaplegic homolog 4 (Homo sapiens), Q13485 (parent)
chain: MDNMSITNTPTSNDACLSIVHSLMCHRQGGESETFAKRAIESLVKKLKEKKDELDSLITAITTNGAHPSKCVTIQRTLDGRLQVAGRKGFPHVIYARLWRWPDLHKNELKHVKYCQYAFDLKCDSVCVNPYHYERVVSPGIDLSGLTLQSNAPSSMMVKDEYVHDFEGQPSLSTEGHSIQTIQHPPSNRASTETYSTPALLAPSESNATSTANFPNIPVASTSQPASILGGSHSEGLLQIASGPQPGQQQNGFTGQPATYHHNSTTTWTGSRTAPYTPNLPHHQNGHLQHHPPMPPHPGHYWPVHNELAFQPPISNHPAPEYWCSIAYFEMDVQVGETFKVPSSCPIVTVDGYVDPSGGDRFCLGQLSNVHRTEAIERARLHIGKGVQLECKGEGDVWVRCLSDHAVFVQSYYLDREAGRAPGDAVHKIYPSAYIKVFDLRQCHRQMQQQAATAQAAAAAQAAAVAGNIPGPGSVGGIAPAISLSAAAGIGVDDLRRLCILRMSFVKGWGPDYPRQSIKETPCWIEIHLHRALQLLDEVLHTMPIADPQPLD
partner: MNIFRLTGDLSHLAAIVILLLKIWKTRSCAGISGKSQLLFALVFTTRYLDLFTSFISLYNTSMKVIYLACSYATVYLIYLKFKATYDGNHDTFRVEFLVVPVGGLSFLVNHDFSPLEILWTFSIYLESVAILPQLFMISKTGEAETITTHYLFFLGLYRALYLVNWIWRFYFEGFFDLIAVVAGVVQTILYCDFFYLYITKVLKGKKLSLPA
B2: Mothers against decapentaplegic homolog 4 (Homo sapiens), Q13485 (parent)
chain: B1 chain
partner: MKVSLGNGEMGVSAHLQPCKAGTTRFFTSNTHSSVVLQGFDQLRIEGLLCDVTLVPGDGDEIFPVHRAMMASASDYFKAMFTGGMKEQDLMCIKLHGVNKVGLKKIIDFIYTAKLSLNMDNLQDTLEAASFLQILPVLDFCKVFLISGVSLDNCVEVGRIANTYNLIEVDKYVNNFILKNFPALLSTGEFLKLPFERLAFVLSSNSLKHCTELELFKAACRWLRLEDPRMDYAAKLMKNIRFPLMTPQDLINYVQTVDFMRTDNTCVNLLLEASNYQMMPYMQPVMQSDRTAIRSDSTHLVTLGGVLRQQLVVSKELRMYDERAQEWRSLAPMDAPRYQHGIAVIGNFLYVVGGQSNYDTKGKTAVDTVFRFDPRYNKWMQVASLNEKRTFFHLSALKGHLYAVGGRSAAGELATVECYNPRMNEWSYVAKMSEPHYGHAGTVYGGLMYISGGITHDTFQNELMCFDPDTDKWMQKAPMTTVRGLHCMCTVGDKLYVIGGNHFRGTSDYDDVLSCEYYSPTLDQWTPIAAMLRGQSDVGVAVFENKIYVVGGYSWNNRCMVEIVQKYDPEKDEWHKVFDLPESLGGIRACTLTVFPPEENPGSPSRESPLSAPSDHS
B3: Mothers against decapentaplegic homolog 4 (Homo sapiens), Q13485 (parent)
chain: B1 chain
partner: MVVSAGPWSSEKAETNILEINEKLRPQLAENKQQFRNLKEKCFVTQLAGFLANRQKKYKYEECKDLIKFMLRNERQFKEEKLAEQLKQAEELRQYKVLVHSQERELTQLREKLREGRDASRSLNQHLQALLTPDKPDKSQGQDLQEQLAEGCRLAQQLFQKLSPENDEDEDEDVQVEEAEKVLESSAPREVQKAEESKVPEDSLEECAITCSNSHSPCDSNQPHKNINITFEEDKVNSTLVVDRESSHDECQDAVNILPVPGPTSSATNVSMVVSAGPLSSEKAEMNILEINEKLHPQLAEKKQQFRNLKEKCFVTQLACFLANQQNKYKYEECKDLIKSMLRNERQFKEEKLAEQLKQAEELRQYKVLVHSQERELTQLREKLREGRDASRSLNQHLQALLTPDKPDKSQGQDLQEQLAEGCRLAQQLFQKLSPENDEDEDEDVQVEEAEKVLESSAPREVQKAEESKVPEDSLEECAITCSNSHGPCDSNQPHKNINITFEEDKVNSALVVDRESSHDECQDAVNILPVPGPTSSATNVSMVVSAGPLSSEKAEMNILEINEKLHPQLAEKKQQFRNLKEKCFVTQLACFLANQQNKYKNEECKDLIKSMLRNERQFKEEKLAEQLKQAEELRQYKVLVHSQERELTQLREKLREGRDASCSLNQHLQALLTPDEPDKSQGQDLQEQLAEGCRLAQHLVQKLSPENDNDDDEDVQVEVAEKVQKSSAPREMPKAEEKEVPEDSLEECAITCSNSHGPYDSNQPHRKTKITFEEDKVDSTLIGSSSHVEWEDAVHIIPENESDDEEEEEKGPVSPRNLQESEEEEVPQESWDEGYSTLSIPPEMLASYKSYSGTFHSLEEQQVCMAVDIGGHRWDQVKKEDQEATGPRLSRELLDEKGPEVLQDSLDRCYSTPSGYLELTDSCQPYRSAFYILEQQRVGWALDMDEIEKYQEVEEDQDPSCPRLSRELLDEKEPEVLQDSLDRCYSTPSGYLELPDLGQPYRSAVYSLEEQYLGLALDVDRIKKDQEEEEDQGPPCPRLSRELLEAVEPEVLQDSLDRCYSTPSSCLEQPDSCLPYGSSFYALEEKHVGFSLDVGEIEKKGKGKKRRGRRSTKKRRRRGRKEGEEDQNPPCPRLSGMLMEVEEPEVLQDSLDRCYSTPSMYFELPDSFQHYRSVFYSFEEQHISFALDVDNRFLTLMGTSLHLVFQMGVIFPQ
B4: Mothers against decapentaplegic homolog 4 (Homo sapiens), Q13485 (parent)
chain: B1 chain
partner: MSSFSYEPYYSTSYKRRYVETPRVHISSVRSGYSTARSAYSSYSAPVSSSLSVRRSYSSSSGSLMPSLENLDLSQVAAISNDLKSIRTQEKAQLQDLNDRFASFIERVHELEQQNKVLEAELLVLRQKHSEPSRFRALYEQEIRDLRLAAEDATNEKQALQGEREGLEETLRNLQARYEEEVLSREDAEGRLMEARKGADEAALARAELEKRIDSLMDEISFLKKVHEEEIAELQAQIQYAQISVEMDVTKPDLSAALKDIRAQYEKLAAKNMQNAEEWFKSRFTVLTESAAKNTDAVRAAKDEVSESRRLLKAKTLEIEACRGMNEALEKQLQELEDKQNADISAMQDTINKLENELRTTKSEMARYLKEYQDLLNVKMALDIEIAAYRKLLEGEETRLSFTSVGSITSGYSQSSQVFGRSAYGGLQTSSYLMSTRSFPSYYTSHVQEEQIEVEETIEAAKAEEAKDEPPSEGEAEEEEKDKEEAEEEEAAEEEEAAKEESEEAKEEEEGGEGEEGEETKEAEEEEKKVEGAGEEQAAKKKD
B5: Mothers against decapentaplegic homolog 4 (Homo sapiens), Q13485 (parent)
chain: B1 chain
partner: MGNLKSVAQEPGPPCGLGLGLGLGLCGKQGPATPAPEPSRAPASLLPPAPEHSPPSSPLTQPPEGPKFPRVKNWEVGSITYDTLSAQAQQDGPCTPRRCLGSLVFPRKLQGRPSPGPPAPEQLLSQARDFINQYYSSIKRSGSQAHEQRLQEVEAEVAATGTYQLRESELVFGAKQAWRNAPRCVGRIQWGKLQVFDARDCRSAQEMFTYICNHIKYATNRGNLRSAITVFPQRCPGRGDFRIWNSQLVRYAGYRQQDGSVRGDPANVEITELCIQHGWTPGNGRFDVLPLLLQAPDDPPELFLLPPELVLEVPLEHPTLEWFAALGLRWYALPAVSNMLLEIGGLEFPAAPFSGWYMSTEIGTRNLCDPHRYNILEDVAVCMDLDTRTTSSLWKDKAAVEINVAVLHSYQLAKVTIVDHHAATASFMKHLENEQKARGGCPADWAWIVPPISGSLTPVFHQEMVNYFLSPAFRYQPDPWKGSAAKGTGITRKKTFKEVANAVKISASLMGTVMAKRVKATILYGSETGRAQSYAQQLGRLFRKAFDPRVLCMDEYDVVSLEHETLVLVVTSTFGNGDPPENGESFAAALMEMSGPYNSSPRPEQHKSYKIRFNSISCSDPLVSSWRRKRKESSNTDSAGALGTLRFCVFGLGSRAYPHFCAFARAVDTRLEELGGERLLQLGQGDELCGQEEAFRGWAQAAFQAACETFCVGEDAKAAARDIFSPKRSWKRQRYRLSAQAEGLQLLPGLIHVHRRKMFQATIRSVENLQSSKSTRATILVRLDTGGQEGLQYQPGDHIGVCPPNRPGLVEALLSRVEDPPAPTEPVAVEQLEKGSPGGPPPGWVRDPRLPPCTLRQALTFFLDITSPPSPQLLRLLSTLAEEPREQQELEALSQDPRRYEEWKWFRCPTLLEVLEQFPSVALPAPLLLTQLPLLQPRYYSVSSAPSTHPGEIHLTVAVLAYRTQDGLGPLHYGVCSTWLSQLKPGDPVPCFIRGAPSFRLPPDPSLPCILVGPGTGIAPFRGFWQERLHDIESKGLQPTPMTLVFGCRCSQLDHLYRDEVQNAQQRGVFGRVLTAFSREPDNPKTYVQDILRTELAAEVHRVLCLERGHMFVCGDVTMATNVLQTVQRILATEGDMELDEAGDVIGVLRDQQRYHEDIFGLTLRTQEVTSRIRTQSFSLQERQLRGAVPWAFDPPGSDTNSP
B6: Mothers against decapentaplegic homolog 4 (Homo sapiens), Q13485 (parent)
chain: B1 chain
partner: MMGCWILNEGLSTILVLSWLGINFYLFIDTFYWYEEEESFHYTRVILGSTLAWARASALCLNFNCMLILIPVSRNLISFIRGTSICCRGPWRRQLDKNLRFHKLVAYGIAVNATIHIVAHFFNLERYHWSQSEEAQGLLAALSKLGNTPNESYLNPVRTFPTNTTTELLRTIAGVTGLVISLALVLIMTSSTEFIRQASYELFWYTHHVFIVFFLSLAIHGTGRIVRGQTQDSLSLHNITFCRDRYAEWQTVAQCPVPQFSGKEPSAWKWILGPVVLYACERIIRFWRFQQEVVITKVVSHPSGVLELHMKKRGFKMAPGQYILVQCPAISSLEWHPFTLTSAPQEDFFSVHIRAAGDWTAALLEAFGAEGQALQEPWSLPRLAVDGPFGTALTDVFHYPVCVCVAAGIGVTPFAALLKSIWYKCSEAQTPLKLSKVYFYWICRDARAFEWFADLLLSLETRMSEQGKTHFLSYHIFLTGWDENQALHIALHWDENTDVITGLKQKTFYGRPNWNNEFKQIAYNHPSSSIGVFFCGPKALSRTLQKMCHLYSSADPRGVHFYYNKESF
B7: Mothers against decapentaplegic homolog 4 (Homo sapiens), Q13485 (parent)
chain: B1 chain
partner: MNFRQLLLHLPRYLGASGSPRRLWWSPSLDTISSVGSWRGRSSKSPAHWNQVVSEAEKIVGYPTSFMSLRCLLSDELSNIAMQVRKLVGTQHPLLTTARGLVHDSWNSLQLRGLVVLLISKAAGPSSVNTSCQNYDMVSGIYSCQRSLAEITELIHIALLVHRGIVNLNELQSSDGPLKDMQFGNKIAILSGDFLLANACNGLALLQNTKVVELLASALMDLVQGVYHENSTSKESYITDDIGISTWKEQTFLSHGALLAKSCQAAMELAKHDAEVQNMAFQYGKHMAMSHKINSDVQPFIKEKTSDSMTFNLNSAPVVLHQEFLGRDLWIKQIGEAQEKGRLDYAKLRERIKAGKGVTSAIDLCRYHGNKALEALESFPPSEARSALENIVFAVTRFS

Variants of: B1
Details: with erd22_human KDELR2, P33947

Row | Variant | effect of a mutation on the interaction
1 | R361H | with no effect

Variants of: B2
Details: with klhl9_human KLHL9, Q9P2J3

Row | Variant | effect of a mutation on the interaction
2 | G386D | with no effect

Variants of: B2
Details: with klhl9_human KLHL9, Q9P2J3
Remark: another data set of the same source

Row | Variant | effect of a mutation on the interaction
3 | G386D | increasing interaction strength

Variants of: B3
Details: with nbpf1_human NBPF1, Q3BBV0

Row | Variant | effect of a mutation on the interaction
4 | G386D | with no effect

Variants of: B4
Details: with nfl_human NEFL

Row | Variant | effect of a mutation on the interaction
5 | G386D | with no effect

Variants of: B5
Details: with nos3_human NOS3, P29474

Row | Variant | effect of a mutation on the interaction
6 | G386D | with no effect

Variants of: B5
Details: with nos3_human NOS3, P29474
Remark: another data set of the same source

Row | Variant | effect of a mutation on the interaction
7 | G386D | increasing interaction strength

Variants of: B5
Details: with nos3_human NOS3, P29474
Remark: another data set of the same source

Row | Variant | effect of a mutation on the interaction
8 | R361H | with no effect

Variants of: B6
Details: with nox3_human NOX3, Q9HBY0

Row | Variant | effect of a mutation on the interaction
9 | G386D | with no effect

Variants of: B6
Details: with nox3_human NOX3, Q9HBY0
Remark: another data set of the same source

Row | Variant | effect of a mutation on the interaction
10 | R361H | with no effect

Variants of: B7
Details: with dlp1_human PDSS2, Q86YH6

Row | Variant | effect of a mutation on the interaction
11 | G386D | with no effect
